We go through three molecules from patent US20080312140A1 (published 2008).

Starred links: 1 amine or outer side, 2 acyl side, 3 side chain; linkers in the order of their positions; H or OH if unused. No end group written: not given here. N(2-Aminoethyl)Gly = O=C(CN(CCN[*:3])[*:1])[*:2]

The chains are these.
B1: C2-2 (peptide)
peptide: RQGSFG-NH2
modifications: bridge (positions not given here) via N(2-Aminoethyl)Gly; also: backbone cyclised via N-(aminoethyl)Gly building unit and dicarboxylic acid bridge (m=3), structure in drawing only
B2: C2-1 (peptide)
peptide: RQGSFG-NH2
modifications: bridge (positions not given here) via N(2-Aminoethyl)Gly; also: backbone cyclised via N-(aminoethyl)Gly building unit and dicarboxylic acid bridge (m=2), structure in drawing only
B3: C2-3 (peptide)
peptide: RQGSFG-NH2
modifications: bridge (positions not given here) via N(2-Aminoethyl)Gly; also: backbone cyclised via N-(aminoethyl)Gly building unit and dicarboxylic acid bridge (m=4), structure in drawing only

The assay deals with HIV-1 envelope glycoprotein gp120 (HIV-1). Put plainly: cell-based or functional assay.
B1: the “IC50 of infection inhibition (Cell Infection Inhibition Assay, CD4 expressing Hela P4 cells)” value (“IC50 of infection inhibition” for short) was 81 µM.

For the molecule B2, the “IC50 of infection inhibition” value was determined as 33 µM.

In the case of B3, the “IC50 of infection inhibition” value was found to be 81 µM.
